Consider 64 variants from the Human Domainome abundance scans (Beltran et al. 2025).

± gives the uncertainty stated by the source.

B1: TGF-beta-activated kinase 1 and MAP3K7-binding protein 3, residues 12 to 50; numbered along this chain, Q8N5C8 (parent)
chain: VLHDLRQRFPEIPEGVVSQCMLQNNNNLEACCRALSQES

The variants in this series derive from B1. Briefly: abundance fitness (aPCA) (normalised: wild type 0, dead -1); higher = more abundant; growth selection in yeast, the domain comes from the species named. The following applies: Homo sapiens.
Consider VLHDLRQRFPEIPEGVVSQCMLQNNNNLEACCFALSQES [R33F], for which the abundance fitness was -0.271 ± 0.067. The value for VLHDLRQRFPEIPEGVVSQCMLQNNNNLEACCTALSQES [R33T] was -0.127 ± 0.056; that for VLHDLRQRFPEIPEGVVSQCMLQNNNNLEACCYALSQES [R33Y] was -0.459 ± 0.12. The result for VLHDLRQRFPEIPEGVVSQCMLQNNNNLEACCKALSQES [R33K] reads -0.023 ± 0.058; that for VLHDLRQRFPEIPEGVVSQCMLQNNNNLEACCSALSQES [R33S], -0.174 ± 0.045. The result for VLHDLRQRFPEIPEGVVSQCMLQNNNNLEACCNALSQES [R33N] reads -0.315 ± 0.13. Turning to VLHDLRQRFPEIPEGVVSQCMLQNNNNLEACCCALSQES [R33C], the abundance fitness was -0.451 ± 0.093.

VLHDLRQRFPEIPEGVVSQCMLQNNNNLEACCHALSQES [R33H]: the abundance fitness was -0.137 ± 0.064.

On to VLHDLRQRFPEIPEGVVSQCMLQNNNNLEACCVALSQES [R33V], for which the abundance fitness was -0.115 ± 0.051. The result for VLHDLRQRFPEIPEGVVSQCMLQNNNNLEACCEALSQES [R33E] reads -0.056 ± 0.058; that for VLHDLRQRFPEIPEGVVSQCMLQNNNNLEACCPALSQES [R33P], -0.731 ± 0.089; that for VLHDLRQRFPEIPEGVVSQCMLQNNNNLEACCQALSQES [R33Q], -0.017 ± 0.051.

Consider VLHDLRQRFPEIPEGVVSQCMLQNNNNLEACCDALSQES [R33D], for which the abundance fitness is -0.239 ± 0.1. Consider VLHDLRQRFPEIPEGVVSQCMLQNNNNLEACCWALSQES [R33W], for which the abundance fitness is -0.259 ± 0.053. The result for VLHDLRQRFPEIPEGVVSQCMLQNNNNLEACCGALSQES [R33G] reads -0.454 ± 0.048; that for VLHDLRQRFPEIPEGVVSQCMLQNNNNLEACCAALSQES [R33A], 0.04 ± 0.045. For the variant VLHDLRQRFPEIPEGVVSQCMLQNNNNLEACCRALDQES [S36D], the abundance fitness is -0.018 ± 0.087. The result for VLHDLRQRFPEIPEGVVSQCMLQNNNNLEACCRALEQES [S36E] reads 0.166 ± 0.046; that for VLHDLRQRFPEIPEGVVSQCMLQNNNNLEACCRALKQES [S36K], -0.014 ± 0.062; that for VLHDLRQRFPEIPEGVVSQCMLQNNNNLEACCRALGQES [S36G], -0.194 ± 0.042. The result for VLHDLRQRFPEIPEGVVSQCMLQNNNNLEACCRALHQES [S36H] reads -0.314 ± 0.078; that for VLHDLRQRFPEIPEGVVSQCMLQNNNNLEACCRALAQES [S36A], 0.08 ± 0.042. The result for VLHDLRQRFPEIPEGVVSQCMLQNNNNLEACCRALIQES [S36I] reads -0.108 ± 0.11; that for VLHDLRQRFPEIPEGVVSQCMLQNNNNLEACCRALCQES [S36C], -0.315 ± 0.099; that for VLHDLRQRFPEIPEGVVSQCMLQNNNNLEACCRCLSQES [A34C], -0.373 ± 0.13. Regarding VLHDLRQRFPEIPEGVVSQCMLQNNNNLEACCRYLSQES [A34Y], the abundance fitness is -0.328 ± 0.35. Regarding VLHDLRQRFPEIPEGVVSQCMLQNNNNLEACCRHLSQES [A34H], the abundance fitness was -0.117 ± 0.09. The result for VLHDLRQRFPEIPEGVVSQCMLQNNNNLEACCRLLSQES [A34L] reads -0.413 ± 0.05; that for VLHDLRQRFPEIPEGVVSQCMLQNNNNLEACCRQLSQES [A34Q], 0.028 ± 0.063. The result for VLHDLRQRFPEIPEGVVSQCMLQNNNNLEACCRMLSQES [A34M] reads -0.168 ± 0.051; that for VLHDLRQRFPEIPEGVVSQCMLQNNNNLEACCRGLSQES [A34G], -0.73 ± 0.057. As for VLHDLRQRFPEIPEGVVSQCMLQNNNNLEACCRILSQES [A34I], the abundance fitness is -0.04 ± 0.13. The result for VLHDLRQRFPEIPEGVVSQCMLQNNNNLEACCRDLSQES [A34D] reads -0.178 ± 0.11. The result for VLHDLRQRFPEIPEGVVSQCMLQNNNNLEACCRVLSQES [A34V] reads -0.135 ± 0.046; that for VLHDLRQRFPEIPEGVVSQCMLQNNNNLEACCRSLSQES [A34S], -0.342 ± 0.055; that for VLHDLRQRFPEIPEGVVSQCMLQNNNNLEACCRKLSQES [A34K], -0.353 ± 0.054. The result for VLHDLRQRFPEIPEGVVSQCMLQNNNNLEACCRELSQES [A34E] reads -0.056 ± 0.041; that for VLHDLRQRFPEIPEGVVSQCMLQNNNNLEACCRWLSQES [A34W], -0.398 ± 0.047. With VLHDLRQRFPEIPEGVVSQCMLQNNNNLEACCRRLSQES [A34R], the abundance fitness is -0.49 ± 0.046.

As for VLHDLRQRFPEIPEGVVSQCMLQNNNNLEACCRTLSQES [A34T], the abundance fitness is -0.297 ± 0.08. The value for VLHDLRQRFPEIPEGVVSQCMLQNNNNLEACCRNLSQES [A34N] was -0.819 ± 0.41; that for VLHDLRQRFPEIPEGVVSQCMLQNNNNLEACCRAPSQES [L35P] was -0.488 ± 0.081.

As for VLHDLRQRFPEIPEGVVSQCMLQNNNNLEACCRAVSQES [L35V], the abundance fitness is -0.924 ± 0.1. Consider VLHDLRQRFPEIPEGVVSQCMLQNNNNLEACCRADSQES [L35D], for which the abundance fitness was -0.784 ± 0.41. The value for VLHDLRQRFPEIPEGVVSQCMLQNNNNLEACCRAWSQES [L35W] was -0.819 ± 0.089; that for VLHDLRQRFPEIPEGVVSQCMLQNNNNLEACCRAQSQES [L35Q] was -0.629 ± 0.25. VLHDLRQRFPEIPEGVVSQCMLQNNNNLEACCRASSQES [L35S]: the abundance fitness was -0.745 ± 0.069. The result for VLHDLRQRFPEIPEGVVSQCMLQNNNNLEACCRAFSQES [L35F] reads -0.697 ± 0.17; that for VLHDLRQRFPEIPEGVVSQCMLQNNNNLEACCRAMSQES [L35M], -0.879 ± 0.15.

For VLHDLRQRFPEIPEGVVSQCMLQNNNNLEACCRACSQES [L35C], the abundance fitness is -0.6 ± 0.25. The result for VLHDLRQRFPEIPEGVVSQCMLQNNNNLEACCRAASQES [L35A] reads -0.793 ± 0.058; that for VLHDLRQRFPEIPEGVVSQCMLQNNNNLEACCRATSQES [L35T], -0.603 ± 0.089; that for VLHDLRQRFPEIPEGVVSQCMLQNNNNLEACCRAKSQES [L35K], -0.808 ± 0.13.

As for VLHDLRQRFPEIPEGVVSQCMLQNNNNLEACCRAESQES [L35E], the abundance fitness is -0.504 ± 0.13. The result for VLHDLRQRFPEIPEGVVSQCMLQNNNNLEACCRAHSQES [L35H] reads -0.469 ± 0.12.

For the variant VLHDLRQRFPEIPEGVVSQCMLQNNNNLEACCRARSQES [L35R], the abundance fitness is -0.811 ± 0.071. The result for VLHDLRQRFPEIPEGVVSQCMLQNNNNLEACVRALSQES [C32V] reads 0.176 ± 0.041; that for VLHDLRQRFPEIPEGVVSQCMLQNNNNLEACRRALSQES [C32R], -0.589 ± 0.06; that for VLHDLRQRFPEIPEGVVSQCMLQNNNNLEACPRALSQES [C32P], -0.664 ± 0.093. As for VLHDLRQRFPEIPEGVVSQCMLQNNNNLEACQRALSQES [C32Q], the abundance fitness was -0.368 ± 0.095.

As for VLHDLRQRFPEIPEGVVSQCMLQNNNNLEACMRALSQES [C32M], the abundance fitness was -0.076 ± 0.048.

In the case of VLHDLRQRFPEIPEGVVSQCMLQNNNNLEACSRALSQES [C32S], the abundance fitness was -0.226 ± 0.046. The value for VLHDLRQRFPEIPEGVVSQCMLQNNNNLEACNRALSQES [C32N] was 0.023 ± 0.15. In the case of VLHDLRQRFPEIPEGVVSQCMLQNNNNLEACYRALSQES [C32Y], the abundance fitness was -0.246 ± 0.064.
